IntAct's records for PubMed 21212807

B1: TRAF family member-associated NF-kappa-B activator (Homo sapiens), Q92844 (parent)
chain: MDKNIGEQLNKAYEAFRQACMDRDSAVKELQQKTENYEQRIREQQEQLSLQQTIIDKLKSQLLLVNSTQDNNYGCVPLLEDSETRKNNLTLDQPQDKVISGIAREKLPKVRRQEVSSPRKETSARSLGSPLLHERGNIEKTFWDLKEEFHKICMLAKAQKDHLSKLNIPDTATETQCSVPIQCTDKTDKQEALFKPQAKDDINRGAPSITSVTPRGLCRDEEDTSFESLSKFNVKFPPMDNDSTFLHSTPERPGILSPATSEAVCQEKFNMEFRDNPGNFVKTEETLFEIQGIDPIASAIQNLKTTDKTKPSNLVNTCIRTTLDRAACLPPGDHNALYVNSFPLLDPSDAPFPSLDSPGKAIRGPQQPIWKPFPNQDSDSVVLSGTDSELHIPRVCEFCQAVFPPSITSRGDFLRHLNSHFNGET
partner: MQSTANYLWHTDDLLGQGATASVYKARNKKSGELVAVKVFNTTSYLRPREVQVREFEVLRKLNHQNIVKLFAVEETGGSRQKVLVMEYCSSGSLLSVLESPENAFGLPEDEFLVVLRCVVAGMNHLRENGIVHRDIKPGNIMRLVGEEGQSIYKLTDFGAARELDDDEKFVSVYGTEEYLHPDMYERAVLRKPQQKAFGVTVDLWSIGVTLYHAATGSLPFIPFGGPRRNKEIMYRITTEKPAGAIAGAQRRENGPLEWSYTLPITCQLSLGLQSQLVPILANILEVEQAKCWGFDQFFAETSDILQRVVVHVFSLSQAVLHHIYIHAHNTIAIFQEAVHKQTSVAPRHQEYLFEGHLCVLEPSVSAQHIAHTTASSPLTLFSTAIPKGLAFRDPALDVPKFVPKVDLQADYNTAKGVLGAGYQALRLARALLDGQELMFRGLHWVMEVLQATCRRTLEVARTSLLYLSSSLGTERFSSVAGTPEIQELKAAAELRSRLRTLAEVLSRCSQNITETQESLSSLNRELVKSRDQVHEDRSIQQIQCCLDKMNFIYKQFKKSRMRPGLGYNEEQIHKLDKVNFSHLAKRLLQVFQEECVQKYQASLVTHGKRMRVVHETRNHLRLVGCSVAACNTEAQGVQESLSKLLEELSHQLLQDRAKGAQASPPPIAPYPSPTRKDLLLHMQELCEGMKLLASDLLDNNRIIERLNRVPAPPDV

Variants of: B1
Settings: with ikke_human IKBKE

Row | effect of a mutation on the interaction | Variant
1 | increasing interaction | MDKNIGEQLNKAYEAFRQACMDRDSAVKELQQKTENYEQRIREQQEQLSLQQTIIDKLKSQLLLVNSTQDNNYGCVPLLEDSETRKNNLTLDQPQDKVISGIAREKLPKVRRQEVSSPRKETSARSLGSPLLHERGNIEKTFWDLKEEFHKICMLAKAQKDHLSKLNIPDTATETQCSVPIQCTDKTDKQEALFKPQAKDDINRGAPSITSVTPRGLCRDEEDTSFESLSKFNVKFPPMDNDSTFLHSTPERPGILSPATSEAVCQEKFNMEFRDNPGNFVRTEETLFEIQGIDPIASAIQNLKTTDKTKPSNLVNTCIRTTLDRAACLPPGDHNALYVNSFPLLDPSDAPFPSLDSPGKAIRGPQQPIWKPFPNQDSDSVVLSGTDSELHIPRVCEFCQAVFPPSITSRGDFLRHLNSHFNGET [K282R]
